Source: the DeepSol protein solubility set

Experiment: soluble on expression in E. coli; label from the status in PepcDB or PDB records

Row | Sequence | soluble on expression in E. coli
1 | MSDLENKKAEEAPKKRPYNLREKKEKKAAYRSLIRPELADELYDKILNIVVVQKKYKDPDYSAKDLAKELKTNTRYLSAVVNSRFGMNYSCLLNEYRVKDALHLLTDKRYADKNVEEISAMVGFANRQSFYAAFYKNVGETPNGYRKKHAESKK | not soluble
2 | MAHHHHHHMGLEDIDECLPPSLGGKGQVLKGRPVNNGDGTSGSCAKVNFGELFGFPVASSGGAVMPSASAGVGSVQAGSKTECQEPEEQWIWVSAEGQKSEASPVDNMAGRSNDPLDAFFTSHTPSLQPSSSMKREEKPFTDLLDFSKPAERVRYSDEHSLLEAFENQSKGRRADVRDDPSLEDLSHGSSNNAVRARLLKIMNYYDILGVTRDATEEQIRQRYKQKALELHPDRVGRDQTPEEVELFKVMTKANEVLCDPEERAKYDEELRCSNVGADDEAQWLFHLHLR | soluble
3 | MPQFASKAEEKNYYERQASLAEFLTWYHQQELPEYEKPSLTVDMVLLCYNKEADQLKVLLIQRKGHPFRNSWALPGGFVNRNESTEDSVLRETKEETGVVISQENIEQLHSFSRPDRDPRGWVVTVSYLAFIGEEPLIAGDDAKEVHWFNLERHGQHITLSHEDVEITLDLKTAASLGKDTLAFDHSEIIIKAFNRVVDKMEHEPQVLQVLGKDFTITEARKVFAKFLGVDYRSIDHSNFKKAMTQYFEELGERPVGIGRPSKIYQLKTTTGF | soluble
4 | MAHHHHHHMDRRHLELEDAQERASAEEVATQASAEHKHYMNDSDEDSDEENGIDDEQSASLVAMLRTQEEIDSAIAGFTKGTRMLLASSGNGYVSYLDGSVHFTIAKVESHNASNREKVMQALAGTNVAMPTAEEYSLEEVRQAMHDRDTARKKLDALRALQDPTYTARIRSAEKDTYGTPVQQLMEEDGDMSALVANCEDAKRFAESVRKAYNSRAAASAHALACALCTPPFTAEQESTSEAQAPAGKMANAEDGVSQPTGANSPSSSTSAQ | soluble
5 | MSLKKLVIFDLDGTLLNTIADLAHSTNYALNKLGYPTHEIEKYNFMVGNGIDKLFERALPEGEKSKENVLRVRKEFVPYYDIHNADDSRPYPGIPELLSYLQDAGIQITVASNKYQAATQKLIDHYFPEIHFTAVFGQREGIKVKPDPTVVFDILEVAKVTKEEVLYVGDSGVDMQTAANAGVTVCGVTWGFRPRAELEEFSPQYIVDTAEEIKRLILEGHHHHHH | soluble
6 | MLAVGIVGLPNVGKSTLFNALTRANALAANYPFATIDKNVGVVPLEDERLYALQRTFAKGERVPPVVPTHVEFVDIAGLVKGAHKGEGLGNQFLAHIREVAAIAHVLRCFPDPDVVHVMGRVDPLEDAEVVETELLLADLATLERRLERLRKEARADRERLPLLEAAEGLYVHLQEGKPARTFPPSEAVARFLKETPLLTAKPVIYVANVAEEDLPDGRGNPQVEAVRRKALEEGAEVVVVSARLEAELAELSGEEARELLAAYGLQESGLQRLARAGYRALDLLTFFTAGEKEVRAWTVRRGTKAPRAAGEIHSDMERGFIRAEVIPWDKLVEAGGWARAKERGWVRLEGKDYEVQDGDVIYVLFNA | soluble
7 | MGSDKIHHHHHHVLNNLGQTRYVVPRPHPQLVTTRTLVMQRIDGFNFDDVTGMQDAGIDTEDVIRTGMVAFMEGALIHGIFHGDLHGGNLFVLPDGRTALLDFGITARLDDDRRRAFLRLMMTATTNDLTGQMAALRDLGALPLDTDLQAVIRDLRLDEAPIDPTTLSGEEMVAEVQRVVKALLSYGARLPKELMLYVKNMVFLDGAIARLAPDLDLLAEVANISMMFASRHGERLMTEIGIDAANMQVNLDSVKAGFGVDLSTDRLTYRELQERRELIQKRMRSHVERTRRSAN | not soluble
8 | MSLRPRAQTAGTWPRVCIESVTPSVDNGRFPVKRTVGDRICVEADAFCDGHDRIAVAVLWRPADAKAWASAPMRALGNDRWRAEFPLERIGTYEFRVEAWRDVFATLHADLEKKRAANTVLPVDVQEAVAAVQAAQARSDGALAERLQTVLTRIGAQSEPLQQLAIVLEPDTAQAMALADDKPFRSEYPVTFRVESERRAAHFSSWYELFPRSQSGDASRHGTFDDVIKRLPHIRAMNFDVLYMPPIHPIGLNNRKGRNNSVTAVEGEPGSPYAIGATDGGHTEVHAELGGLEGFRRLIEAARAQGLEVALDFAIQCAPDHPWLKEHKDWFTWRADGSIPYAENPPKKYQDIVNVDFYASGAVPDLWNTLRDAVLFWVNEGVTLFRVDNPHTKPFPFWEWLIADVRGRRPDVVFLSEAFTRPKMMYRLAKCGFSQSYTYFTWRNHKHELRAYVEELNDGVPRECFRPHFFVNTPDINPLFLQTSGRNGHLIRAALATTLSGLWGMYQGFELCEATPLAPGKEEYLDSEKFQLRAWPERVPGDIVEEITRFNQLRRMHPELQSHLGTRFYQAHNDQVLYYGKFLDAGYLSRSRSMVLVAINLDPHAGQDADIEIPLWELGLPDHASVAVEDLWDGHRFAWHGKYQHIRLEATRPFALWRIRAGEGHHHHHH | soluble
9 | MKVPPKKKFLGNSEHPGDLLTQTSKCECQLASVYGNGRVPVKNKKATNAYFQQSIPSWSDTLRMTRQNKKQRGRRRWKKNRKKRRVKTG | not soluble
10 | MGSDKIHHHHHHMSSPSFNVEEHKKMLQSYFNGQGFQRWASIYGDDKLSTVRSTVRQGHAVMMDKAFEWLQKTGLPKGSKILDAGCGTGLFTIRLAKSGYRVKAADIAEQMVNKTREDAEKAGVAGNVEFEVNSIESVSGTFDAVVCFDVLIHYPAEGFAHAFSNLAGLTKGPIIFTYAPFNNILAFQHWIGGFFPKKERRTTIQMIKDKEMQRVLSELGLKIVSQQKISFGFYHTMLMHVARR | not soluble
11 | MSLSIPLILASQSRPRRDVLFSAGICPTIRVSHVDEPAALEREAAALGVTVNDLSVEQRVMILATAKAEAVHQAYRNIADTAAHARGERVVGFPLRAADDRDASSAGTAARTDSAQSADETKTRDFSGIAIPTVAEPIADFVDGRPSLTRSKAGPLILGCDSMFLLDGECYGKPHSEEVARERLRAMRGATGELWTGHCLIDFASGRMVRGASKATLHFCEYSDLDIERYIATGEPLEVAGSFTLEGFGGAFIDSIEGDPHGIIGLSLPLARRLAAQLGVEWTDLWNVTRSDLAPDAEYDAKTGAAKPLPPKENVHQPGDGWVDCACGRKHWGTNGASGVLLARRSETTGEVTHVVMQHRAVWSAEGGTWGIPGGATADGESPIEGALRESYEEANITPEDIDVVGSYCEDHGPWSYTTVFAFEKPGHRIEPKANDDESMEIEWVPVDDVPNRKLLTAMRTDWPNFAARLRALAAVREGHHHHHH | soluble
12 | MSVIIVGGGMAGATLALAISQFSHGTLPVHLIEAKAPEADGHPGFDARAIALAAGTCQQLARIGVWLAISDCATAINTVHVSDRGHAGFVTLDAQDYSLAALGHVAELHDIGLRLFALLRKAPGVTLHCPERVASVSRTQQQVNVTLENGNVIAGSVLVAANGTHSALASACGVDWHQEPYEQLAVIANVATAIPHQGRAFERFTPNGPLAMLPMSHGRCSLVWCHPLDQRDEVLSWSDAQFCHALQAAFGWRLGRITQAGKRSAYPLALTTAAKVFTHRTVVVGNAAQTLHPIAGQGFNLGLRDVMSLAETLVAAQDAGEDIGAWHVLSRYQQRRQVDRDTTIGVTNGLVHLFANRWAPLVIGRNIGLMAMELLPPARDALAQRTLGWVARLEHHHHHH | soluble
13 | MPTITTKTPVKGLIFNIQKFSINDGPGIRTVVFFKGCPLRCKWCSNPESQSGEQESMYDEQTAKQTIVGDYMTVDDIMKVILQDKDFYEESGGGVTFSGGEVLFQASFAIELAKAVKAAGINLACETTGYARPKVFNEFMSYMDFMYYDCKQWDPAQHRIGTGADNGVILRNLATAVQAHQKMMVRIPVIPGFNYTLNDADHFGQLFNQIGVTEVELLPFHQFGLKKYQDLGRKYALVNVKQLQADDLIDYAEHIRAHGVKVRVNGW | not soluble
14 | MKSFLVAGCTSDAGKSVVVAGLCRALTRRGLRVAPFKAQNMSNNSAVTPDGGEIGRAQALQAYACGLTPSVDFNPILLKPGSDRTSQLVVRGIATGNVSARSYIEHRTELRKIASESLNSLRERFDVVVCEGAGSPAETNLRATDVANFGLAEECDLPVYIVGDIDRGGVLAHFYGTHQIVDDADRARIKGFVVNKFRGDVSILEPGLQDLEDRLGVPTVAVLPFIHGLWIDAEDSLQSTIGATVGPAAAPLGTQRLRVAAIRLPRVSNATDVEALACEPGVTVTWTVDPDSVAEADLVVIPGSKATLSDLAWLRSTGVADAIMERARSQRPILGICGGFQMMCSHIDDPVESGSTTPVEGLGIFDVDIEFHPEKTLIRHENGGYEVHHGRVERSTEQPWIGNEGARTQSNFGTHRHGYLEDDEARRDFLGTVSTLAQRPGFVVAPATSFEAERNKQLDVIADAIEQHWDLDQLIAALT | not soluble
15 | MGDWMIENKVRDVVKKLKPYVPGKSKEEIARAYGIKPEDIIKLGSNENPWGPSPKIKEKILDEIDKIHQYPEPVNPILMKELSKFLNVDEENIIVGGDGADEIIDTIFRTFVDDGDEVIIPIPTFTQYRVSATIHNAKIKYAKYDKEKDFKLNVESVLNNITDKTKVIFLCTPNNPTGNIIENRDVERVINETDALVVIDHAYIEYAKKEYDWTQKAPEYDNVIVLRTFSKVFGLAGMRVGYGVANKKIIDYMMRVKPIFSLTRLSQVCAITALRDREFFERCVRDGIKSREMLYNGLKKFKDIKVYPSEANYLLVELKTMKAKEFCEELLKRGVIVRDCTSFDGLGDNYVRVSIGTFEEVERFLKILEEIIS | not soluble
16 | VKVNPSVKPICDKCRLIRRHGRVMVICSDPRHKQRQG | not soluble
17 | MGSDKIHHHHHHMWMNGFARWMDKLKVLSSEAGSKACWGYDACPAGDGIIASIDGYSMDSSRLPWMSLGDWGWKSVVAAASDVAASGGAPFHVMYSLGLDSVERAVDVARGVGEAAVWMGATVGKSDFNTSKSPWIDVAVLGKAEKPLGRFGAKPGMTLVQVGASGYGLLSHLTLQGRLSRDDLPGPVVEYTRRPKPPLRIGPELSSCEAAASIDNSDGLGASLHLLGVESGVSVVIDDILVDRHVEKVLDELGLEKWAVLQSWEDYNIVAVGGDGSIDCILRWCRRLNIECATVGYTSSDGAGRVLIEGGRREFRVSGWTWL | not soluble
18 | QQEVYGMMPRDETDSKTASASPWKSARLMVHTVATFNSIKER | soluble
19 | MAFFRNCDPDDPLCIDECRLQKFEYLRWVRLLPSGDEDVLSYCASIGARLGKSEGYVSRRIDAFSMLLELSKVHELQLKMWHLDITRLMVIAQALSGVEKEVIEEIDAPLARFLTPKRDNQKMPGPKVIKKFIVDLLVRVEDAVEEVDSPQELAIDFYDAGNGKTGINAVVDNATASIFRDQLMRLAKAYECDDSSALLLMATQEGKSLTINLYKGDNFGELMTADGYRLSRKSVDLVFPNASRRSLEGVENVETRGYSFTPSMRAYIQARDGVCRFPGCSIRAVNCDIDHVEEYGLGGKTTARNAQCLCRRHHNLKTSKAVDCEISGDASVSWILEDGTKVVTLPEGIFSADRLFGQTFAQRVVDRIRRRKLRMRKNSCDDVPF | not soluble
20 | GPGSMLRSEVLDAEVAKSVEAYSTAVTPFVERRSGLYLTKFEVARIIGERAKQIASGAAMSLPGTGSGLDSVETAERCTNPRSLAVDPVMMAKYDLLQRKIRMLVRRVWPDGAVETIPVNELMVDVTMLDLQY | soluble
21 | MGSSHHHHHHSQDPMDYFNIKQNYYTGNFVQCLQEIEKFSKVTDNTLLFYKAKTLLALGQYQSQDPTSKLGKVLDLYVQFLDTKNIEELENLLKDKQNSPYELYLLATAQAILGDLDKSLETCVEGIDNDEAEGTTELLLLAIEVALLNNNVSTASTIFDNYTNAIEDTVSGDNEMILNLAESYIKFATNKETATSNFYYYEELSQTFPTWKTQLGLLNLHLQQRNIAEAQGIVELLLSDYYSVEQKENAVLYKPTFLANQITLALMQGLDTEDLTNQLVKLDHEHAFIKHHQEIDAKFDELVRKYDTSN | soluble
